Experimental data taken from patent US20250163167A1 (SYNTHEKINE, published 2025).

T1: mIL10Rb ECD antigen (mouse, UniProt Q61190 20-220)
T1 construct: Antigen of biopanning and PE-ELISA; also called extracellular domain of mIL10Rb
T1 sequence: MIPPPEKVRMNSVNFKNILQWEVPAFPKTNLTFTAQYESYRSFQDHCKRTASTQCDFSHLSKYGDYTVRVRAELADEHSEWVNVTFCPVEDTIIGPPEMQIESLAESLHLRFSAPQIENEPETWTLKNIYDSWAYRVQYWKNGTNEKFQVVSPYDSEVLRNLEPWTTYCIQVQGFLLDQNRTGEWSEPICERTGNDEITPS

T2: hIL10Rb-his (Sino Biological, Catalog#10945) (human, UniProt Q08334 20-220)
T2 construct: Bought; also called Sino Biological cat#10945-H08H; not shown: C-terminal poly-His tag
T2 sequence: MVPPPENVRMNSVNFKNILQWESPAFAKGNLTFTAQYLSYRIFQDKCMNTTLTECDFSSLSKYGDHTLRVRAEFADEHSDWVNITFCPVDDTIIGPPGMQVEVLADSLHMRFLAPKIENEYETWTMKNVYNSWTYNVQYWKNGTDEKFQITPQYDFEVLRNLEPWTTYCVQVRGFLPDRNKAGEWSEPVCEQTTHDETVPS

T3: hIL10Ra-his (Sino Biological, Catalog#10419) (human, UniProt Q13651 22-235)
T3 construct: Bought; also called Sino Biological cat#10419-H08H; not shown: C-terminal poly-His tag
T3 sequence: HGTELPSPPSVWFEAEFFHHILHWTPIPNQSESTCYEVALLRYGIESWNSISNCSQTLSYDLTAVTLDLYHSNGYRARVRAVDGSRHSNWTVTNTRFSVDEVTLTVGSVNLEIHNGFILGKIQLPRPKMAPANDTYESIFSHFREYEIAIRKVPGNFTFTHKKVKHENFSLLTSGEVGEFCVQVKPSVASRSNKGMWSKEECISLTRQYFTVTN

T4: hIL10Ra ECD antigen (human, UniProt Q13651 22-235)
T4 construct: also called ECD of IL10Ra; extracellular domain of hIL10Ra
T4 sequence: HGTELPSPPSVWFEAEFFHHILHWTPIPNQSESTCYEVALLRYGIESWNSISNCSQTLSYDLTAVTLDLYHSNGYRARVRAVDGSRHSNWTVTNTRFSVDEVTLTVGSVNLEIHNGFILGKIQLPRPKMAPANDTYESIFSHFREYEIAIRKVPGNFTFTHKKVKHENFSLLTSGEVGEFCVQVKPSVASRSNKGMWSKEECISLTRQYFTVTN


Experiments:
mIL10Rb ECD antigen = target: T1, mIL10Rb ECD antigen; test: periplasmic extract ELISA (PE-ELISA) of phage clones
[1] = target: T2, hIL10Rb-his (Sino Biological, …); test: SPR; ratio of experimental to calculated Rmax
[2] = target: T2, hIL10Rb-his (Sino Biological, …); test: SPR Biacore T200; mono-Fc VHH captured on Protein A chip, hIL10Rb-his analyte; 1:1 Langmuir fit
[3] = target: T3, hIL10Ra-his (Sino Biological, …); test: SPR; ratio of experimental to calculated Rmax
From the text: (§1) To confirm and evaluate binding affinities of the binding of the IL10Ra sdAbs, a representative example from each clonotype generated was selected for evaluation of binding via SPR. […] Buffer-subtracted sensograms were processed with Biacore T200 Evaluation Software and globally fit with a 1:1 Langmuir binding model (bulk shift set to zero) to extract kinetics and affinity constants (kₐ, kd, KD). RMAX<100 RU indicates surface density compatible with kinetics analysis. Calculated Rₘₐₓ values were generated using the equation: Rₘₐₓ=Load (RU)×valency of ligand×(Molecular weight of analyte/Molecular weight of ligand). Surface activity was defined as the ratio of experimental/calculated Rmax.
(§2) One representative example from each clonotype of IL10a generated in accordance with Examples 1-3 was selected for evaluation of binding via SPR as follows. […] All experiments were conducted in 10 mM Hepes, 150 mM NaCl, 0.05% (v/v) Polysorbate 20 (PS20) and 3 mM EDTA (HBS-EP+ buffer) on a Biacore T200 instrument equipped with a Protein A derivatized sensor chip (Cytiva). Mono-Fc VHH ligands were flowed at 5 μl/min for variable time ranging from 18 to 300 seconds, reaching the capture loads listed in the tables below. Following ligand capture, injections of a 2-fold dilution series of the extracellular domain of the IL2Rb-receptor modified to incorporate a C-terminal poly-His sequence, typically comprising at least five concentrations between 1 μM and 1 nM, were performed in either high performance or single cycle kinetics mode. Surface regeneration was achieved by flowing 10 mM glycine-HCl, pH 1.5 (60 seconds, 50 μL/min).

[4] = target: T3, hIL10Ra-his (Sino Biological, …); test: SPR Biacore T200; mono-Fc VHH captured on Protein A chip, hIL10Ra-his analyte; 1:1 Langmuir fit
From the text: as §1
as §2, with “[…],” for “injections of a 2-fold dilution series of the extracellular domain of the IL2Rb-receptor modified to incorporate a C-terminal poly-His sequence,”

hIL10Ra ECD antigen = target: T4, hIL10Ra ECD antigen; test: periplasmic extract ELISA (PE-ELISA) of phage clones

Row | Binder | binding result (mIL10Rb ECD antigen) | Surface Activity [3] [%] | Kd [4] [nM] | koff [4] [s⁻¹] | kon [4] [M⁻¹ s⁻¹] | other results
1 | DR1326 (anti mouse mIL10Rb VHH) (VHH, Phage clone, periplasmic extract) VHH: QVQLQESGGGSVQAGGSLRLSCTASRYIALNACMAWIRQAPGSEREVVATIVTDGSRTYYADSVKGRFTISQDNAKNTMYLQMNGLKPEDTAMYYCAADRRCPVSRAPYEYELRYWGQGTQVTVSS | binds | – | – | – | – | –
2 | hIL-10Rb_VHH1 Mono-Fc (Fc fusion, Mono-Fc VHH captured on Protein A; not shown: mono-Fc part) QVQLQESGGGSVQAGGSLRLSCAASGYTYSSGCMGWFRQAPGKEREAVAAINSDGSTSYADSVKGRFTISKDNAKNTLYLQMNSLKPEDTAMYYCAAEPYCSGGYPRWSVAEFGYWGQGTQVTVSS | – | – | – | – | – | Surface Activity [1]: 82%; Kd [2]: 8.3 nM; koff [2]: 0.00144 s⁻¹; kon [2]: 175000 M⁻¹ s⁻¹
3 | hIL-10Ra_VHH9 Mono-Fc (Fc fusion, Mono-Fc VHH captured on Protein A; not shown: mono-Fc part) QVQLQESGGGSVQAGGSLRLSCAVSGYAYSTYCMGWFRQAPGKEREGVAAIDSGGSTSYADSVKGRFTISKDNAKNTLYLRMNSLKPEDTAMYYCAAVPPPPDGGSCLFLGPEIKVSKADFRYWGQGTQVTVSS | – | 66 | 11.6 | 0.00115 | 99700 | –
4 | DR1325 (anti mouse mIL10Rb VHH) (VHH, Phage clone, periplasmic extract) VHH: QVQLQESGGGSVQAGGSLRLSCAASGYTYNRRFMGWFRQAPGKEREGLAIIYTPNSSTFYADSVTGRFTISQDSARNTVYLQMNSLKPEDTAMYYCAAARIASMTELSVRDMDYWGKGTQVTVSS | binds | – | – | – | – | –
5 | DR1322 (anti mouse mIL10Rb VHH) (VHH, Phage clone, periplasmic extract) VHH: QVQLQESGGGSVQAGGALRLSCTASGYTASSICMGWFRQAPGKERERVAVITTAASGTYYADSVNGRFSISQNNAKNTVYLQMNSLKPDDTAMYYCAATRRGGDCLDPLQTPAYNTWGQGTQVTVSS | binds | – | – | – | – | –
6 | hIL-10Ra_VHH17 Mono-Fc (Fc fusion, Mono-Fc VHH captured on Protein A; not shown: mono-Fc part) QVQLQESGGGSVQAGGSLRLSCAASGYSNCSYDMTWYRQAPGKEREFVSAIHSDGSTRYADSVKGRFFISQDNAKNTVYLQMNSLKPEDTAMYYCKTDPLHCRAHGGSWYSVRANYWGQGTQVTVSS | – | 35 | 6 | 0.00197 | 327000 | –
7 | hIL-10Ra_VHH6 Mono-Fc (Fc fusion, Mono-Fc VHH captured on Protein A; not shown: mono-Fc part) QVQLQESGGGSVQAGGSLRLSCAASRFTYSSYCMGWFRQAPGKEREGVASIDSDGSTSYTDSVKGRFTISKDNAKNTLYLQMNSLKPEDTAMYYCALDLMSTVVPGFCGFLLSAGMDYWGKGTQVTVSS | – | 83 | 1.8 | 0.00019 | 106000 | –
8 | hIL-10Ra_VHH8 Mono-Fc (Fc fusion, Mono-Fc VHH captured on Protein A; not shown: mono-Fc part) QVQLQESGGGSVQAGGSLRLSCAASGYTYSMYCMGWFRQAPGKEREGVAQINSDGSTSYADSVKGRFTISKDNAKNTLYLQMNSLKPEDTAMYYCAADSRVYGGSWYERLCGPYTYEYNYWGQGTQVTVSS | – | 57 | 6.4 | 0.00107 | 168000 | –
9 | DR1324 (anti mouse mIL10Rb VHH) (VHH, Phage clone, periplasmic extract) VHH: QVQLQESGGGSVQAGGSLRLSCATSGYASCSRAMRWYRQAPGKEREFVAYIDGVGSTGYADSVKGRFTISQDNAKYTAYLQMNSLKPEDTAMYYCNRGCRADGSNSLDNYWGQGTQVTVSS | binds | – | – | – | – | –
10 | hIL-10Ra_VHH10 Mono-Fc (Fc fusion, Mono-Fc VHH captured on Protein A; not shown: mono-Fc part) QVQLQESGGGSVQAGGSLRLSCAASRYLYSIDYMAWFRQSPGKEREPVAVIYTASGATFYPDSVKGRFTISQDNAKMTVYLQMNSLKSEDTAMYYCAAVRKTDSYLFDAQSFTYWGQGTQVTVSS | – | 57 | 13.4 | 0.00139 | 104000 | –
11 | DR1323 (anti mouse mIL10Rb VHH) (VHH, Phage clone, periplasmic extract) VHH: QVQLQESGGGSVQAGGSLRLSCVASGDTYSRKYIAWVRQVPGKEREGVAVMYTPGSATYYTDTVMGRFTISQDNAKNTVYLQMNSLKPEDTAMYFCAAKASGSMFNFRDYTYWGQGTQVTVSS | binds | – | – | – | – | –
12 | hIL-10Rb_VHH12 Mono-Fc (Fc fusion, Mono-Fc VHH captured on Protein A; not shown: mono-Fc part) QVQLQESGGGSVQAGGSLRLSCAASGYTYSSYCMGWFRQAPGKEREGVAHIDSDGSTSYADSVKGRFTISKDNAKNTLYLQMNSLKPEDTAMYYCAADPIPGPGYCDGGPNKYWGQGTQVTVSS | – | – | – | – | – | Surface Activity [1]: 67%; Kd [2]: 12.9 nM; koff [2]: 0.00143 s⁻¹; kon [2]: 111000 M⁻¹ s⁻¹
13 | hIL10Ra VHH11 (VHH, Phage clone, periplasmic extract) VHH: QVQLQESGGGSVQAGGSLRLSCGASRYTYSSYCMGWFRQAPGKEREGVAVIDSDGSTSYADSVKGRFTISKDNGKNTLYLQMNSLKPEDTAMYYCAADLGHYRPPCGVLYLGMDYWGKGTQVTVSS | – | – | – | – | – | binding result (hIL10Ra ECD antigen): binds
14 | hIL-10Ra_VHH14 Mono-Fc (Fc fusion, Mono-Fc VHH captured on Protein A; not shown: mono-Fc part) QVQLQESGGGSVQAGGSLRLSCGASGYTYSSYCMGWFRQVPGKEREGVAVIDSDGSTSYADSVKGRFTISKDNGKNTLYLQMNSLKPEDTAMYYCAADLGHYRPPCGVLYLGMDYWGKGTQVTVSS | – | 51 | 1.4 | 0.000136 | 98400 | –
15 | hIL10Ra VHH16 (VHH, Phage clone, periplasmic extract) VHH: QVQLQESGGGSVQAGGSLRLACAASRYTYSNYCMGWFRQAPGKEREGVATIDSDGNTSYADSVKGRFTISRDNAKNTLYLQMNSLKPGDTAMYYCAADLGHYRPPCGAYYYGMDYWGKGTQVTVSS | – | – | – | – | – | binding result (hIL10Ra ECD antigen): binds
16 | hIL10Ra VHH15 (VHH, Phage clone, periplasmic extract) VHH: QVQLQESGGGSVQAGGSLRLSCGASGYTYSGYCMGWFRQAPGKEREGVAVIDSDGSTSYADSVKGRFTISKDNGKNTLYLQMNSLKPEDTAMYYCAADLGHYRPPCGVLYLGMDYWGKGTQVTVSS | – | – | – | – | – | binding result (hIL10Ra ECD antigen): binds
17 | hIL10Ra VHH13 (VHH, Phage clone, periplasmic extract) VHH: QVQLQESGGGSVQAGGSLRLSCAVSGYSYSSNCMGWFRQAPGKEREGVATIHTGGGSTYYADSVKGRFTISQDNAKNTVYLQMNSLKPEDTAMYYCAAEPLSRLYGGSCPTPTFGYWGQGTQVTVSS | – | – | – | – | – | binding result (hIL10Ra ECD antigen): binds
18 | hIL-10Ra_VHH12 Mono-Fc (Fc fusion, Mono-Fc VHH captured on Protein A; not shown: mono-Fc part) QVQLQESGGGSVQAGGSLRLSCTVSGYTYSSNCMGWFRQAPGKEREGVATIYTGGGNTYYADSVKGRFTISQDNAKNTVYLQMNNLKPEDTAMYYCAAEPLSRVYGGSCPTPTFDYWGQGTQVTVSS | – | 73 | 7.7 | 0.00119 | 154000 | –
19 | DR1327 (anti mouse mIL10Rb VHH) (VHH, Phage clone, periplasmic extract) VHH: QVQLQESGGGSVQAGGSLRLSCAASGYTYNGKCMAWFRQAPGKEREVVAGIYTGGSSTYYADSVKGRFTISQDNAKNTVYLQMDSLKPEDTAMYYCATSRSCSDLRRRSIAYWGQGTQVTVSS | binds | – | – | – | – | –
